Measured values published in patent publication US11453702B2, “Bicyclic peptide ligands specific for Nectin-4” (priority 2018, dated 2022).
*1 amine or outer side, *2 acyl side, *3 side chain or, on linkers, in order; H or OH if unused. Where a SMILES comes first, the peptide text is derived from it. Bridges are numbered along the chain shown (N, C = ends). Roman numbers before positions name the chains, in order. [ ]: non-standard residue; d: D form. The star is where a group is joined. ξ: configuration not given here. TATA = O=C(CC[*:1])N1CN(C(=O)CC[*:2])CN(C(=O)CC[*:3])C1; Dolaproine = CO[C@@H]([C@@H]1CCCN1)[C@@H](C)C(=O)O; X1 = CC[C@H](C)C(C(CC(=O)[*:2])OC)N(C)[*:1]; Dil = CC[C@H](C)[C@H](NC)[C@@H](CC(=O)O)OC; 1Nal = N[C@@H](Cc1cccc2ccccc12)C(=O)O; X3 = O=C(CCCC(=O)[*:2])NCCC(=O)[*:1]; PABC = O=C(OCc1ccc(N[*:1])cc1)[*:2]; X4 = C[C@@H](N*)[C@@H](O)c1ccccc1; Hyp = O=C(O)[C@@H]1C[C@@H](O)CN1; hArg = N=C(N)NCCCC[C@H](N)C(=O)O; Cit = NC(=O)NCCC[C@H](N)C(=O)O; X2 = CC(N*)[C@@H](O)c1ccccc1; NMeV = CN[C@H](C(=O)O)C(C)C; ξNMeV = CNC(C(=O)O)C(C)C; ξV = CC(C)C(N)C(=O)O; Sar = CNCC(=O)O

Assays:
MDA-MB-468 cell line = experiment: HCS assay, Nectin-4 BDC binding study (Example 11); format: cell-based
Procedure: HCS assay was used in Nectin-4 BDC binding study. Cells were incubated with test agent and then washed. Detection was by a fluorescent antibody to MMAE.

[1] = test system: CTG-1771, CTG-1171, CTG-1106 and CTG-0896 PDX models; settings: all models
Text: To evaluate the antitumor activity of Bicycle Agent in Low Passage Champions TumorGraft Models of Human Breast, Esophageal, and Bladder Cancer in Immunocompromised mice.
Pre-study Animals: When sufficient stock animals reach 1.0-1.5 cm^3, tumors will be harvested for re-implantation into pre-study animals. Pre-study animals will be implanted unilaterally on the left flank with tumor fragments harvested from stock animals. Each animal is implanted from a specific passage lot and documented.
Study Animals: Pre-study tumor volumes are recorded for each experiment beginning seven to ten days after implantation. When tumors reach an average tumor volume of 150-300 mm^3, animals will be matched by tumor volume into treatment or control groups to be used for dosing and dosing initiated on Day 0.

A549 xenograft = experiment: In vivo efficacy in A549 xenograft in Balb/c nude mice (Example 9.1); settings: mouse
Procedure: (§1) The major endpoint was to see if the tumor growth could be delayed or mice could be cured. Tumor volume was measured three times weekly in two dimensions using a caliper, and the volume was expressed in mm^3 using the formula: V=0.5 a×b^2 where a and b are the long and short diameters of the tumor, respectively. The tumor size was then used for calculations of T/C value. The T/C value (in percent) is an indication of antitumor effectiveness; T and C are the mean volumes of the treated and control groups, respectively, on a given day.
(§2) TGI was calculated for each group using the formula: TGI (%)=[1−(Ti−T0)/(Vi−V0)]×100; Ti is the average tumor volume of a treatment group on a given day, T0 is the average tumor volume of the treatment group on the day of treatment start, Vi is the average tumor volume of the vehicle control group on the same day with Ti, and V0 is the average tumor volume of the vehicle group on the day of treatment start.
(§3) A one-way ANOVA was performed to compare tumor volume among groups, and when a significant F-statistics (a ratio of treatment variance to the error variance) was obtained, comparisons between groups were carried out with Games-Howell test. All data were analyzed using GraphPad Prism 5.0. P<0.05 was considered to be statistically significant. […]

HT-1376 xenograft = settings: 5 mg/kg qw, during the treatment schedule
Procedure: All data were analyzed using GraphPad Prism 5.0. P<0.05 was considered to be statistically significant.
The objective of the research is to evaluate the in vivo anti-tumor efficacy of test articles in treatment of HT-1376 xenograft in CB17-SCID mice.
The HT-1376 tumor cells were maintained in vitro as a monolayer culture in EMEM medium supplemented with 10% heat inactivated fetal bovine serum at 37° C. in an atmosphere of 5% CO2 in air. The tumor cells were routinely subcultured twice weekly by trypsin-EDTA treatment. The cells growing in an exponential growth phase were harvested and counted for tumor inoculation.
Each mouse was inoculated subcutaneously at the right flank with HT-1376 tumor cells (5×10^6) in 0.2 ml of PBS with matrigel (1:1) for tumor development. Animals were randomized when the average tumor volume reached 153-164 mm^3. The test article administration and the animal numbers in each group were shown in the experimental design table.
The HT-1376 tumor cells will be maintained in EMEM medium supplemented with 10% heat inactivated fetal bovine serum at 37° C. in an atmosphere of 5% CO2 in air. The tumor cells will be routinely subcultured twice weekly. The cells growing in an exponential growth phase will be harvested and counted for tumor inoculation. […]

NCI-H292 xenograft = experiment: In vivo efficacy in NCI-H292 xenograft (NSCLC model) in BALB/c nude mice (Examples 1, 5, 9.5); settings: Ex 1; all treatment animals during the dosing schedule
Text: The animals will be randomized and treatment will be started when the average tumor volume reaches approximately 158-406 mm^3.
The objective of the research is to evaluate the in vivo anti-tumor efficacy of test articles in treatment of NCI-H292 xenograft in Balb/c nude mice.

[2] = BCY8245 (BT8009) injected at 3 mg/kg; MDA-MB-468 xenograft animals
Procedure: At various timepoints, animals were euthanized and plasma and tumour taken and snap frozen. Samples were analysed for MMAE.

NCI-H526 xenograft = settings: 5 mg/kg biw (so in the source)
Procedure: as §1, §2, §3

SMILES	binding affinity (Kd) on MDA-MB-468 cell line (in words) (MDA-MB-468 cell line)	retention on the cells (in words) (MDA-MB-468 cell line; MDA-MB-468 cells, detection by fluorescent antibody to MMAE)	tolerability compared with Docetaxel (in words) [1]	bodyweight (in words) (A549 xenograft)	animal bodyweight loss (HT-1376 xenograft)	bodyweight (in words) (NCI-H292 xenograft)	retention of MMAE in tumour versus plasma (in words) [2]	animal bodyweight loss (NCI-H526 xenograft)
CC[C@H](C)[C@@H]([C@@H](CC(=O)N1CCC[C@H]1[C@H](OC)[C@@H](C)C(=O)N[C@H](C)[C@@H](O)c1ccccc1)OC)N(C)C(=O)[C@@H](NC(=O)[C@@H](NC)C(C)C)C(C)C [MMAE, Monomethyl auristatin E] (H-[NMeV]V[Dil][Dolaproine]-X4)	almost no detectable binding affinity	minimal retention	–	–	–	–	–	–
CC[C@H](C)C(C(CC(=O)N1CCC[C@H]1[C@H](OC)[C@@H](C)C(=O)NC(C)[C@@H](O)c1ccccc1)OC)N(C)C(=O)[C@@H](NC(=O)C(C(C)C)N(C)C(=O)OCc1ccc(NC(=O)[C@H](CCCNC(N)=O)NC(=O)C(NC(=O)CCCC(=O)NCCC(=O)N(C)CC(=O)N(C)CC(=O)N(C)CC(=O)N(C)CC(=O)N(C)CC(=O)N(C)CC(=O)N(C)CC(=O)N(C)CC(=O)N(C)CC(=O)N(C)CC(=O)N[C@H]2CSCCC(=O)N3CN4CN(C3)C(=O)CCSC[C@H](NC(=O)[C@@H](CC(=O)O)NC(=O)[C@H](Cc3cccc5ccccc35)NC(=O)[C@@H]3CCCN3C2=O)C(=O)N[C@@H](CCSC)C(=O)N[C@@H](CCCCNC(=N)N)C(=O)N[C@@H](CC(=O)O)C(=O)N[C@@H](Cc2c[nH]c3ccccc23)C(=O)N[C@@H](CO)C(=O)N[C@@H]([C@@H](C)O)C(=O)N2CCC[C@H]2C(=O)N2C[C@H](O)C[C@H]2C(=O)N[C@@H](Cc2c[nH]c3ccccc23)C(=O)N[C@H](C(N)=O)CSCCC4=O)C(C)C)cc1)C(C)C (stereo partly drawn) [BCY8245, MMAE-PABC-Cit-Val-Glutaryl-BCY8234] (I: [Sar][Sar][Sar][Sar][Sar][Sar][Sar][Sar][Sar][Sar]CP[1Nal][dD]CM[hArg]DWSTP[Hyp]WC-NH2 / II: [ξV][Cit][PABC][ξNMeV]V[X1][Dolaproine]-X2; linker I:11-I:15-I:25 via TATA; linker I:N-II:N via X3)	–	–	better tolerated than Docetaxel	maintained the bodyweight well	over 10%	continued bodyweight loss	MMAE was retained in the tumour longer than in plasma	over 10%
